In patent publication US20150353950A1, “TRANSGENIC PLANTS” (Durham University, priority 2012, published 2015):
One block for each molecule: values may come before it.

Experiments:
GFP:RGA = test: Immunoprecipitation of GFP:RGA from pRGA::GFP:RGA seedlings sprayed with GA3; type: in vivo, Arabidopsis; details: seedlings sprayed with GA3 (10 μM), harvested at different time points
Procedure: FIGS. 7A-D. RGA and GAI are SUMOylated in vivo. a, Immunoprecipitation of GFP proteins from 35S::GFP or 35S::GFP:NPR1 (NON EXPRESSER OF PR GENES) young seedlings sprayed with 1 mM Salicylic acid (+SA) or control (−SA). Numbers indicate molecular mass (kDa), arrowhead, the GFP:NPR1 or GFP proteins. Ponceau staining of the Rubisco large subunit serves as a loading control. b, in vitro deSUMOylation of plant-derived GFP:RGA by recombinant SUMO protease subunits of SENP1 and SENP2. c, immunoprecipitation of equal amount of total proteins derived from pRGA::GFP:RGA seedlings or a transgenic line (Col-0) expressing GAI:GFP (35S::GAI:GFP). 9 days old seedlings were grown in petri dishes in the absence (−) or presence (+) of PAC (0.1 μM). […]
Total proteins were extracted by homogenizing fresh Arabidopsis seedlings in the presence of ice cold extraction buffer—150 mM NaCl, 1% Igepal CA-630, 0.5% sodium deoxycholate, 0.1% SDS, 1 mM EDTA, 50 mM Tris HCl, pH 8.0 and freshly added protease inhibitor cocktail (Roche) and 10 mM N-ethylmaleimide (NEM). The homogenates were clarified by spinning 10 min at 4° C. at 13000×g and the supernatant quantified with the Bradford assay. […] Total proteins were quantified with the Bradford reagent and an equal amount of proteins was precipitated with five volumes of cold acetone. […]

His:proAtSUMO1 [1] = target: T1, His:proAtSUMO1 (Arabidopsis, UniProt P55852 1-100); test: far-western on spotted peptides
T1 construct: Probe of the far-western assay on spotted SIM peptides (10 ug/ml); also called recombinant His:proAtSUMO1; not shown: His tag
Procedure: (§1) Peptides corresponding to the putative SIMs in GID1 were purchased from Cambridge Research Biochemicals. 1 μg of each peptide was spotted on a PVDF membrane. Membranes were washed in 100% Ethanol, equilibrated in TBST (25 mM Tris HCl, pH 8.0, 150 mM NaCl, 0.05% Tween 20) and blocked in TBST-Milk 5%. Peptides were probed overnight at 4° C. with recombinant His:proAtSUMO1 (10 μg/ml), washed and subsequently probed with SUMO1 antibodies for standard chemoluminescence-based detection.

[2] = target: T2, SUMOylated GFP:RGA (plant-derived) (Arabidopsis, UniProt P55852 1-93, SUMO1 conjugated; lysine 65 of RGA is the critical amino acid for SUMO attachment); test: GST pull down of plant-derived GFP:RGA with recombinant GST:GID1a, with or without 10 µM GA3
T2 construct: the preparation is a mixture of SUMOylated and non-SUMOylated forms; also called SUMOylated RGA; SUMOylated DELLA; not shown: GFP fused N-terminally to RGA in the pRGA::GFP:RGA line
Procedure: GA3 was added at a final concentration of 10 μM. Proteins were pulled-down using the μMACS GST Isolation Kit, according to the manufacturers' instruction (Miltenyi biotech). […] The eluate was dialyzed against 50 mM Tris HCl, pH 7.5, 50 mM NaCl, 1 mM DTT. Plant purified GFP:RGA proteins were split into different tubes and incubated with recombinant GST:GID1a (0.1 μg) or GST proteins in 1× reaction buffer (with freshly added protease inhibitor cocktail) in the presence or absence of 10 μM GA3. GST-bound proteins were pulled-down using the μMACS GST Isolation Kit, washed four times with 1× reaction buffer and eluted according to the manufacturers' instruction.

His:proAtSUMO1 [3] = target: T1, His:proAtSUMO1; test: peptide array probed with SUMO1 (FIG. 10a)
SUMOylated GFP:RGA = target: T3, SUMOylated GFP:RGA (Arabidopsis thaliana, UniProt Q9SLH3); test: On-column deSUMOylation assay of plant-derived GFP:RGA; type: biochemical; details: 5-10 μg recombinant protease, typically 1-2 hours at room temperature
T3 construct: expressed in transfected cells; host or cells: pRGA::GFP:RGA transgenic Arabidopsis plants (Ler background)
Description: FIGS. 2A-G. SUMOylation is a novel DELLA modification affecting DELLA accumulation. a, Immunoprecipitation of GFP:RGA proteins. […] His:RGAK65R is not SUMOylated. […] In bold characters, the conserved lysine residues, shaded area, the non-canonical SUMOylation motif. Alignment discloses SEQ ID NOS 41, 76-77, 42, and 78-82, respectively, in order of appearance. e, SUMOylated GFP:RGA accumulation upon NaCl treatment. f, SUMOylated GFP:RGA accumulation in wild-type (OTS1 OTS2) or mutants (ots1 ots2) plants. g, accumulation of GFP:RGA at different concentrations of NaCl. Wild-type extracts (Col-0) were used as a negative control.
GFP:RGA proteins were affinity captured from total proteins extracts of pRGA::GFP:RGA transgenic plants with the μMACS GFP Isolation Kit. Magnetic beads were eluted from the columns with 50 μl of 20 mM Tris HCl, pH 7.5 and split into different tubes. Purified GFP:RGA proteins were incubated with 5-10 μg of recombinant OTS1 or OTS1C526S, or 300 ng of GST tagged human SENP1 or SENP (42) (catalytic domain) (Enzo life sciences). After incubation (typically 1-2 hours at room temperature), the beads were applied to the column, washed and bound proteins eluted with SDSPAGE loading buffer.

His:proAtSUMO1 [4] = target: T1, His:proAtSUMO1; test: far-western on spotted peptides SIM A and SIM B
Procedure: as §1

T1 sequence (P55852 whole entry): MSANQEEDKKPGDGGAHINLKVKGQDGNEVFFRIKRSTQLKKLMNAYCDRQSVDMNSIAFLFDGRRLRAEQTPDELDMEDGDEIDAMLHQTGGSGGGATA
T3 sequence (Q9SLH3 whole entry): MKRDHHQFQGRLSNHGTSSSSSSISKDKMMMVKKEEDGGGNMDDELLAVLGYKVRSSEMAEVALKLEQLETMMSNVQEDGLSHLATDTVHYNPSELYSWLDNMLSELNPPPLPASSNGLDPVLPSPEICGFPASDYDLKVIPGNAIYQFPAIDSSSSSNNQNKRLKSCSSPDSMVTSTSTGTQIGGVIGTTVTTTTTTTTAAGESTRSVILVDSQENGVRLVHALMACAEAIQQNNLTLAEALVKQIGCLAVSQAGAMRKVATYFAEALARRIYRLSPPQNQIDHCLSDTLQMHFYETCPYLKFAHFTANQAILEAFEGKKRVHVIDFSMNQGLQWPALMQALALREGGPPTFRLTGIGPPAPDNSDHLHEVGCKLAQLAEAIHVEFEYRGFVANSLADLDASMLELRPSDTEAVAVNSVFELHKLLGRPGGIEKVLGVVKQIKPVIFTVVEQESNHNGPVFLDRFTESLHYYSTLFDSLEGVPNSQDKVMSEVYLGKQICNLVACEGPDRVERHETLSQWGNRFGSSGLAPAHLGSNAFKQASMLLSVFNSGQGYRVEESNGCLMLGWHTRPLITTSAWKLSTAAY
T3 sequence (P55852 1-93 partner limits assumed): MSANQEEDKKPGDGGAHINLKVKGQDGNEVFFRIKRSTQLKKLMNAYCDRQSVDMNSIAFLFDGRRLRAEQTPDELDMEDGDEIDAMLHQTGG
T2 sequence (chain, as listed by the source limits assumed, chain 1 of 2): as the sequence (Q9SLH3 whole entry) above
T2 sequence (P55852 1-93 limits assumed, chain 2 of 2): as the sequence (P55852 1-93 partner limits assumed) above

Molecule: C=C1C[C@]23C[C@@]1(O)CC[C@H]2[C@@]12C=C[C@H](O)[C@@](C)(C(=O)O1)[C@H]2[C@@H]3C(=O)O [GA, gibberellic acid]
abundance of SUMOylated and non-SUMOylated RGA after GA treatment (GFP:RGA): induced a rapid disappearance of both SUMOylated and non-SUMOylated RGA forms

binding result (His:proAtSUMO1 [1]): binds
Molecule: VVPLNTWVLISN (Synthetic peptide, 1 ug spotted on PVDF) [SIM B peptide of GID1a]

binding result [2]: binds
B1: GST:GID1a (receptor)
chain: MAASDEVNLIESRTVVPLNTWVLISNFKVAYNILRRPDGTFNRHLAEYLDRKVTANANPVDGVFSFDVLIDRRINLLSRVYRPAYADQEQPPSILDLEKPVDGDIVPVILFFHGGSFAHSSANSAIYDTLCRRLVGLCKCVVVSVNYRRAPENPYPCAYDDGWIALNWVNSRSWLKSKKDSKVHIFLAGDSSGGNIAHNVALRAGESGIDVLGNILLNPMFGGNERTESEKSLDGKYFVTVRDRDWYWKAFLPEGEDREHPACNPFSPRGKSLEGVSFPKSLVVVAGLDLIRDWQLAYAEGLKKAGQEVKLMHLEKATVGFYLLPNNNHFHNVMDEISAFVNAEC
notes: GID1a ORF (pLCG66) recombined into pDEST15; also called recombinant GST-tagged GID1a; GST-tagged GID1a; not shown: glutathione S-transferase (GST) tag of the GATEWAY destination vector pDEST15

binding result (His:proAtSUMO1 [3]): binds
Molecule: VVPLNTWVLISNF (also called AtGID1a SIM) [SIM “B” peptide of AtGID1a (peptide array of FIG. 10)]

B2: OTS1: purified recombinant OTS1 SUMO protease (protein)
chain: MTKRKKEVIDVDCSEKKDFVIDWSSAMDKEDEVPELEIVNTTKPTPPPPPTFFSDDQTDSPKLLTDRDLDEQLERKKAILTLGPGLPDKGEKIRLKIADLEEEKQRRVLEGSKMEVDRSSKVVSSTSSGSDVLPQGNAVSKDTSRGNADSKDTSRQGNADSKEVSRSTFSAVFSKPKTDSQSKKAFGKELEDLGCERRKHKAGRKPVTRLSNGWRLLPDVGKAEHSAKQFDSGLKESKGNKKSKEPYGKKRPMESSTYSLIDDDDDDDDDDDNDTSGHETPREWSWEKSPSQSSRRRKKSEDTVINVDEEEAQPSTVAEQAAELPEGLQEDICYPTRDDPHFVQVCLKDLECLAPREYLTSPVMNFYMRFLQQQISSSNQISADCHFFNTYFYKKLSDAVTYKGNDKDAFFVRFRRWWKGIDLFRKAYIFIPIHEDLHWSLVIVCIPDKKDESGLTILHLDSLGLHSRKSIVENVKRFLKDEWNYLNQDDYSLDLPISEKVWKNLPRRISEAVVQVPQQKNDFDCGPFVLFFIKRFIEEAPQRLKRKDLGMFDKKWFRPDEASALRIKIRNTLIELFRVSDQTE
modifications: left off: small tags and cut ends
notes: purified recombinant OTS1 SUMO protease
deSUMOylation of SUMOylated GFP:RGA (SUMOylated GFP:RGA): dramatic reduction of the higher molecular weight, anti-SUMO1 cross-reacting bands

binding result (His:proAtSUMO1 [4]): no binding
B3: SIM A peptide of GID1a (peptide)
peptide: LIESRTVVPLNTW
notes: Synthetic peptide (Cambridge Research Biochemicals), 1 ug spotted on PVDF
